Reference: paper PMC4070910, “Cathepsin S Signals via PAR2 and Generates a Novel Tethered Ligand Receptor Agonist” (PLoS ONE, 2014)
Read-outs that look alike come from different tables or passages of the source.

B1: papain: plant protease (protein, UniProt P00784 134-345, looked up)
Papain: IPEYVDWRQKGAVTPVKNQGSCGSCWAFSAVVTIEGIIKIRTGNLNEYSEQELLDCDRRSYGCNGGYPWSALQLVAQYGIHYRNTYPYEGVQRYCRSREKGPYAAKTDGVRQVQPYNEGALLYSIANQPVSVVLEAAGKDFQLYRGGIFVGPCGNKVDHAVAAVGYGPNYILIKNSWGTGWGENGYIRIKRGTGNSYGVCGLYTSSFYPVKN
B2: der p 1: dust mite allergen (protein, UniProt P08176 99-320, looked up)
Peptidase 1: TNACSINGNAPAEIDLRQMRTVTPIRMQGGCGSCWAFSGVAATESAYLAYRNQSLDLAEQELVDCASQHGCHGDTIPRGIEYIQHNGVVQESYYRYVAREQSCRRPNAQRFGISNYCQIYPPNVNKIREALAQTHSAIAVIIGIKDLDAFRHYDGRTIIQRDNGYQPNYHAVNIVGYSNAQGVDYWIVRNSWDTNWGDNGYGYFAANIDLMMIEEYPYVVIL

What was measured:
human PAR2 = test: Fura-2 calcium imaging in HeLa cells transfected with PAR2 cDNA; format: cell-based; settings: PAR2-transfected HeLa; KVDGTS 100 µM, cathepsin S 2 µM, papain 2 µM, trypsin 10 nM; second agent after up to 60 minutes; room temperature
Protocol: Human PAR2 cDNA was cloned as an Xho I-Hind III fragment (1206 bp) into pcDNA3.1(−). 10 µg of DNA were diluted into 0.5 ml of DMEM and mixed with 0.5 ml of DMEM containing 10 µl of Lipofectamine 2000 transfection reagent and incubated at room temperature for 20 minutes. HeLa cells were grown to confluence, trypsinized and 1×10^6 cells were pelleted in a 15 ml tube by centrifugation at 1000 rpm for 5 minutes. The DMEM-Lipofectamine 2000-DNA mixture (1 ml) was added to the cell pellet, resuspended gently and incubated at room temperature for 20 minutes. Four ml of complete DMEM with 10% FBS were added to the tube, mixed by inverting the tube several times, plated into a 96-well glass bottom plate at 20,000 cells/well, and placed in a 37°C CO2 incubator. HeLa cells transfected with vector alone or salmon sperm DNA (shown in the figures) were plated as a control. The medium was aspirated two days after transfection. Fura-2 was used as a ratiometric calcium-sensitive indicator as follows. 100 µl of complete DMEM containing 2 µM of Fura-2 were added to each well and left at room temperature in the dark for 1 hr. Following loading with Fura-2, the medium was aspirated and replaced with 90 µl of HEPES-buffered saline (20 mM HEPES, 115 mM NaCl, 5.4 mM KCl, 2 mM CaCl2, 0.8 mM MgCl2, 13.8 mM glucose, pH 7.4).
Imaging was performed using a Zeiss Axiovert 200 M microscope platform equipped with a flipping filter wheel for ratiometric imaging. Axiovision software, version 4.6 was used for image analysis of the cells which were excited at 340 nm and 380 nm. Ten µl of peptide agonist were added at 20 seconds after the start of the excitation procedure. Images were taken every 5 seconds, including at zero time, during a 3-minute period or longer if required. The software later analyzed all images taken during each excitation period. Typically, ratiometric changes were measured in 10–20 cells in each image. An average of the fluorescence of the cells in each image was calculated and plotted against time in seconds.
HeLa cells transfected with PAR2 cDNA were subjected to ratiometric imaging as described above with PAR2 peptides, SLIGRL, KVDGTS, and SLIGKVDGTS in addition to the reverse peptides LRGILS and STGDVK at concentrations from 1 nM - 1 mM. Each of the concentration-dependent readings was performed in triplicate. Maximum intensities at each of the dilutions were calculated and plotted against concentration using GraphPad/PRISM software version 6.0 (Irvine, CA). Error bars represent +/−SEM.

PAR2 = settings: in vitro, cited from earlier work
Excerpt: PAR2 signaling has been implicated in the development of inflammatory and bowel diseases, asthma, itch and pain. The receptor is expressed on many types of cells including keratinocytes, sensory neurons, fibroblasts, endothelial cells, and inflammatory cells, [3]. Consistent with this broad expression, PAR2 is involved in numerous physiologic and pathophysiologic processes in response to both endogenous and exogenous proteases.

Molecule | effect as first agent on calcium response to second agent (in words) (human PAR2) | PAR2 activation (in words) (PAR2; plant proteases) | PAR2 activation (in words) (PAR2; dust mite allergen)
B1 | failed to induce a calcium response at any time up to 60 minutes | supporting activation | –
B2 | – | – | supporting activation
